Data from publication PMC2679210, “Dpr Acts as a Molecular Switch, Inhibiting Wnt Signaling when Unphosphorylated, but Promoting Wnt Signaling when Phosphorylated by Casein Kinase Iδ/ε” (PLoS ONE, 2009).

Biological target: T1, Myc-tagged XDpr1a phosphorylated by CKIδ (Xenopus, UniProt Q8QG92 1-824, phosphorylated by CKIδ; sites not told)
T1 construct: Xenopus Dapper1a (XDpr1a), as m1; also called phosphorylated XDpr1a; XDpr1a in the presence of CKIδ
T1 sequence (looked up): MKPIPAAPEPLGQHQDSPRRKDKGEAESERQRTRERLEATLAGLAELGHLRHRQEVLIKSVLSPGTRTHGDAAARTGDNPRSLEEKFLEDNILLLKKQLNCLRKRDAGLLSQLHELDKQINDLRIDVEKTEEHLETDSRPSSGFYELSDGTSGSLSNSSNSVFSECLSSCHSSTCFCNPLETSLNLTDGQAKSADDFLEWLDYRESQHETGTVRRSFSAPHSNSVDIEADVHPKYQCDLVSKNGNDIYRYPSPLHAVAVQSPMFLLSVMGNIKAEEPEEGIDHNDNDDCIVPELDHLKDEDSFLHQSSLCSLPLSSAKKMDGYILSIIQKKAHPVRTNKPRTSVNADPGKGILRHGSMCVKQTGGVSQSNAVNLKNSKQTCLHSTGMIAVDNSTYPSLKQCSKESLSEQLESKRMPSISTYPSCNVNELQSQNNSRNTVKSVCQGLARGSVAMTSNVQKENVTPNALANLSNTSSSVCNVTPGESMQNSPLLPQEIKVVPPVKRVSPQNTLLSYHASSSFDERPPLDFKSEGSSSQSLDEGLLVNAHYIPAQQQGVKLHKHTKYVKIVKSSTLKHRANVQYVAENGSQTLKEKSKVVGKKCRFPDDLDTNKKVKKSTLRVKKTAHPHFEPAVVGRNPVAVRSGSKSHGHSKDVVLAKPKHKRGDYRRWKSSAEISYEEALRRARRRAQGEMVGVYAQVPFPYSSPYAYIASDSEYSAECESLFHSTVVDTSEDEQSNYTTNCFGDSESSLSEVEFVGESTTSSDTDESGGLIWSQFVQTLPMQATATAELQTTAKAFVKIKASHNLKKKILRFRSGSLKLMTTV
Test: co-IP; in vitro coimmunoprecipitation: [35S]methionine-labeled Myc:XDpr1a immunoprecipitated with anti-Myc antibodies and protein A agarose, 2 hours at room temperature, from a reaction containing HA-tagged XDsh in the absence or presence of CKIδ; washed three times with 50 mM Tris-HCl pH 7.4, 137 mM NaCl; SDS-PAGE, autoradiography, PhosphorImager quantitation (n = 4 trials)
Settings: partners not purified

coimmunoprecipitation relative to the control without CKIδ: ~0.5 relative to no CKIδ (1.0)
B1: HA-tagged XDsh phosphorylated by CKIδ (natural protein, Xenopus, UniProt P51142 1-736, looked up)
chain: MAETKVIYHLDEEETPYLVKVPVPATDIRLRDFKAALGRGHAKYFFKAMDQDFGVVKEEISDDNAKLPCFNDRVVSWLASSEGSQPDSAPPAPATEVRPEPPPPVPPPIPPPPAERTSGIGDSRPPSFHPNVSGSTEQLDQDNESVISMRRDRVRRRESSEQAGVGRGVNGRTERHLSGYESSSTLLTSEIETSICDSEEDDTMSRFSSSTEQSSASRLLKRHRRRRKQRPPRLERTSSFSSVTDSTMSLNIITVTLNMEKYNFLGISIVGQSNERGDGGIYIGSIMKGGAVAADGRIEPGDMLLQVNDINFENMSNDDAVRVLRDIVHKPGPIVLTVAKCWDPSPQGYFTLPRNEPIHPIDPAAWVSHSAALSGSFPVYPGSASMSSMTSSTSVTETELSHALPPVSLFSLSVHTDLASVVKVMASPESGLEVRDRMWLKITIPNAFLGSDVVDWLYHHVEGFQDRREARKFASNLLKAGFIRHTVNKITFSEQCYYIFGDLTGCENYMTNLSLNDNDGSSGASDQDTLAPLPLPGASPWPLLPTFSYQYQAPHPYSTQPPAYHELSSYSYGMGSAGSQHSEGSRSSGSNRSDGGRGMQKDDRSGVAGVGGGDSKSGSGSESEYSTRSSIRRVGGGEAGPPSERSTSSRLPPHHPPSVHSYAAPGVPLSYNPMMLMMMPPPPLPPPGVCPPNSSVPPGAPPLVRDLASVPPELTATRQSFHMAMGNPSEFFVDVM
modifications: phosphorylated by CKIδ; sites not told
notes: Xenopus disheveled (XDsh), as m2; also called phosphorylated XDsh; XDsh in the presence of CKIδ
